Measurements published in the supplement of paper PMC7877785.
± gives the uncertainty stated by the source.

Test: self-splicing fitness, log relative to wild type (ln ratio); higher = more splicing; Tetrahymena group I intron in knt gene, E. coli kanamycin selection, DiMSum; sequences stand for … in CUCUCU…GGAGGGAAAAGUUAUCAGGCAUGCACCUGGUAGCUAGUCUUUAAACCAAUAGAUUGCAUCGGUUUAAAAGGCAAGACCGUCAAAUUGCGGGAAAGGGGUCAACAGCCGUUCAGUACCAAGUCUCAGGGGAAACUUUGAGAUGGCCUUGCAAAGGGUAUGGUAAUAAGCUGACGGACAUGGUCCUAACCACGCAGCCAAGUCCUAAGUCAACAGAUCUUCUGUUGAUAUGGAUGCAGUUCACAGACUAAAUGUCGGUCGGGGAAGAUGUAUUCUUCUCAUAAGAUAUAGUCGGACCUCUCCUUAAUGGGAGCUAGCGGAUGAAGUGAUGCAACACUGGAGCCGCUGGGAACUAAUUUGUAUGCGAAAGUAUAUUGAUUAGUUUUGGAGUACUCGUGGUCG
Procedure, shortened: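 DiMSum derived fitness as the error-weighted combination of fold changes across replicates, kanamycin versus no kanamycin, normalised to wild type. E. coli BL21(DE3) held the library, which randomised all eight P1ex-region intron nucleotides within the knt kanamycin-resistance gene on pET-22b(+). Six replicate transformations grew overnight at 37°C or 30°C on LB agar with or without 25 μg/mL kanamycin, also containing 100 μg/mL carbenicillin, 50 μM IPTG and 0.2% rhamnose, and pooled colonies were amplicon-sequenced on an Illumina HiSeq 2500.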

Sequence | self-splicing fitness (ln) (30 °C) | self-splicing fitness (ln) (37 °C)
CCGUAGCAAUAUUACGGGAU | -4.51 ± 0.29 | -2.53 ± 0.2
CCGUAGCAAUAUUACGGGUA | -2.75 ± 0.32 | -2.67 ± 0.36
CCGUAGCAAUAUUACGUGAU | -3.04 ± 0.14 | -2.43 ± 0.18
CCUAAGCAAUAUUACGAAGC | -2.92 ± 0.18 | -1.92 ± 0.28
CCUAAGCAAUAUUACGACAA | -3.28 ± 0.22 | -2.54 ± 0.2
CCUAAGCAAUAUUACGAGAG | -2.31 ± 0.17 | -1.23 ± 0.13
CCUAAGCAAUAUUACGAGCA | -2.92 ± 0.3 | -3.08 ± 0.35
CCUAAGCAAUAUUACGAGGG | -3.2 ± 0.17 | -3 ± 0.35
CCUAAGCAAUAUUACGAGUC | -3.77 ± 0.22 | 
CCUAAGCAAUAUUACGCGAU | -3.49 ± 0.24 | -2.31 ± 0.27
CCUAAGCAAUAUUACGCGUA | -1.88 ± 0.25 | -2.19 ± 0.33
CCUAAGCAAUAUUACGCUAC |  | -1.53 ± 0.31
CCUAAGCAAUAUUACGCUCU | -2.4 ± 0.14 | -2.94 ± 0.3
CCUAAGCAAUAUUACGGACC | -3.02 ± 0.49 | 
CCUAAGCAAUAUUACGGCGG | -3.12 ± 0.17 | -2.79 ± 0.2
CCUAAGCAAUAUUACGGCUC | -3.13 ± 0.23 | -1.56 ± 0.21
CCUAAGCAAUAUUACGGGUG | -2.47 ± 0.077 | -1.11 ± 0.073
CCUAAGCAAUAUUACGGUCA | -3.95 ± 0.37 | -3.01 ± 0.2
CCUAAGCAAUAUUACGUAGU | -1.3 ± 0.061 | -0.474 ± 0.083
CCUAAGCAAUAUUACGUCAA | -2.65 ± 0.16 | -3.14 ± 0.21
CCUAAGCAAUAUUACGUCAG | -1.58 ± 0.12 | -0.812 ± 0.12
CCUAAGCAAUAUUACGUGUC | -3.86 ± 0.27 | -1.54 ± 0.12
CCUCAGCAAUAUUACGAAGC | -2.92 ± 0.15 | -2.44 ± 0.25
CCUCAGCAAUAUUACGAAUG | -1.01 ± 0.089 | -0.196 ± 0.1
CCUCAGCAAUAUUACGACUU | -3.69 ± 0.42 | -2.43 ± 0.26
CCUCAGCAAUAUUACGAGCU | -4.22 ± 0.37 | -1.9 ± 0.23

Sequence | self-splicing fitness (ln) (30 °C) | self-splicing fitness (ln) (37 °C)
CCUCAGCAAUAUUACGAGGG | -4.16 ± 0.26 | -2.73 ± 0.28
CCUCAGCAAUAUUACGAUGG | -4.2 ± 0.19 | -2.69 ± 0.16
CCUCAGCAAUAUUACGAUUA | -2.62 ± 0.22 | -2.23 ± 0.19
CCUCAGCAAUAUUACGCAGU | -3.09 ± 0.22 | -1.67 ± 0.28
CCUCAGCAAUAUUACGCCCU | -2.29 ± 0.24 | -2.73 ± 0.48
CCUCAGCAAUAUUACGCGCA | -3.31 ± 0.27 | -2.74 ± 0.23
CCUCAGCAAUAUUACGCGGG | -4.06 ± 0.28 | -2.34 ± 0.29
CCUCAGCAAUAUUACGCGUC | -4.16 ± 0.46 | -2.18 ± 0.34
CCUCAGCAAUAUUACGCUCU | -4.29 ± 0.43 | 
CCUCAGCAAUAUUACGGACC |  | -3.01 ± 0.31
CCUCAGCAAUAUUACGGCCC | -4.21 ± 0.39 | 
CCUCAGCAAUAUUACGGGGA | -3.03 ± 0.14 | -2.1 ± 0.15
CCUCAGCAAUAUUACGGUCC | -4.07 ± 0.36 | 
CCUCAGCAAUAUUACGUACG | -1.32 ± 0.069 | -0.131 ± 0.084
CCUCAGCAAUAUUACGUCCG | -1.86 ± 0.072 | -0.0776 ± 0.11
CCUCAGCAAUAUUACGUCGA | -3.67 ± 0.27 | -2.28 ± 0.2
CCUCAGCAAUAUUACGUCGC |  | -3.77 ± 0.36
CCUCAGCAAUAUUACGUGUA | -2.19 ± 0.13 | -2.16 ± 0.15
CCUCAGCAAUAUUACGUUAC | -3.54 ± 0.19 | -3.7 ± 0.36
CCUCAGCAAUAUUACGUUAG | -3.27 ± 0.15 | -2.14 ± 0.14
CCUCAGCAAUAUUACGUUUC | -3.04 ± 0.17 | -2.44 ± 0.2
CCUGAGCAAUAUUACGAAGU |  | -0.825 ± 0.19
CCUGAGCAAUAUUACGACGA | -2.99 ± 0.24 | -1.61 ± 0.17
CCUGAGCAAUAUUACGAUAU | -4.45 ± 0.37 | -2.39 ± 0.23
CCUGAGCAAUAUUACGCAAG | -3.97 ± 0.24 | -2.49 ± 0.19
